# Measured values: patent publication US20190233493A1 (Sanofi, published 2019)
# *1 amine or outer side, *2 acyl side, *3 side chain or, on linkers, in order; H or OH if unused. Primed or numbered codes have the meaning given here. Side-chain parts run from the residue outwards. [ ]: non-standard residue; d: D form. The star is where a group is joined. PEG12 = NCCOCCOCCOCCOCCOCCOCCOCCOCCOCCOCCOCCOCCC(=O)O; γGlu = O=C(O)[C@H](CCC(=O)[*:2])N[*:1]; 1Nal = N[C@@H](Cc1cccc2ccccc12)C(=O)O; Stearoyl = CCCCCCCCCCCCCCCCCC(=O)*; Palmitoyl = CCCCCCCCCCCCCCCC(=O)*; Lauroyl = CCCCCCCCCCCC(=O)*; Nle = CCCC[C@H](N)C(=O)O; PEG2′ = PEG2 spacer unit; PEG2″ = not defined here; Aib = CC(C)(N)C(=O)O
# T1: RXFP1 receptor (UniProt Q9HBX9 1-757, limits assumed)
# T1 sequence (looked up): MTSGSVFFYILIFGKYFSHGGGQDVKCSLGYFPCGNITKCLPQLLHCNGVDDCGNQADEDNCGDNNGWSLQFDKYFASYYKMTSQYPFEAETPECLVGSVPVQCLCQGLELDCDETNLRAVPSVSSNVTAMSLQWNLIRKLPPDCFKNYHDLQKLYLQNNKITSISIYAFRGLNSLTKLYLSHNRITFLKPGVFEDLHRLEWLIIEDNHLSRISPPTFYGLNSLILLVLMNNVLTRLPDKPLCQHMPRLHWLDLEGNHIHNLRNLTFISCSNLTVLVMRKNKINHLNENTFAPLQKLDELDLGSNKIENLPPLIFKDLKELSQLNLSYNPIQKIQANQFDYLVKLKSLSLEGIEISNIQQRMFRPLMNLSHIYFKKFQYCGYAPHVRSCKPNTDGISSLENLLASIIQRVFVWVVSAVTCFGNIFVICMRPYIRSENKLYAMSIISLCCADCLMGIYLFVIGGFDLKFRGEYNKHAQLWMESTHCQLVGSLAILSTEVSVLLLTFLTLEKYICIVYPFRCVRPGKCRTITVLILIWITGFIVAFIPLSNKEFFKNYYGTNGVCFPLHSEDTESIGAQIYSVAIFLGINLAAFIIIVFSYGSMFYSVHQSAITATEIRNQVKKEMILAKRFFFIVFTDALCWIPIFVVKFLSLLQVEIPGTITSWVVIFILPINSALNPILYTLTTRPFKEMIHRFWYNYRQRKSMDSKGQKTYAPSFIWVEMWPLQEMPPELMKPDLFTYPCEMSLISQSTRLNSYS
# B1: peptide of SEQ ID NO: 119 (peptide)
# peptide: Ac-LEGREKVRAQI[Aib][Aib]EG[Nle]STWS[Aib]RKK(Ac)[PEG2′][PEG2′][PEG2′][γGlu][γGlu]K([γGlu-Palmitoyl])-NH2
# B2: peptide of SEQ ID NO: 120 (peptide)
# peptide: Ac-LEGREKVRAK(Ac)I[Aib][Aib]EG[Nle]STWS[Aib]RKK(Ac)K([PEG2′-PEG2′-PEG2′-γGlu-γGlu-γGlu-Lauroyl])-NH2
# B3: peptide of SEQ ID NO: 121 (peptide)
# peptide: Ac-LEGREKVRAQI[Aib][Aib]EG[Nle]STWS[Aib]RKK(Ac)[PEG2′][PEG2′][PEG2′][PEG2′][γGlu][γGlu]K([γGlu-Palmitoyl])-NH2
# B4: peptide of SEQ ID NO: 105 (peptide)
# peptide: Ac-LEGREKVRAQI[Aib][Aib]EG[Nle]STWS[Aib]RKKK([γGlu-γGlu-PEG2″-PEG2″-γGlu-Stearoyl])-NH2
# B5: peptide of SEQ ID NO: 112 (peptide)
# peptide: Ac-LEGREKVRAK(Ac)I[Aib][Aib]EG[Nle]STFS[Aib]RKK(Ac)K([PEG2″-PEG2″-PEG2″-γGlu-γGlu-γGlu-Stearoyl])-NH2
# B6: peptide of SEQ ID NO: 113 (peptide)
# peptide: Ac-LEGREKVRAK(Ac)I[Aib][Aib]EGQSTWS[Aib]RKK(Ac)K([PEG2″-PEG2″-PEG2″-γGlu-γGlu-γGlu-Stearoyl])-NH2
# B7: peptide of SEQ ID NO: 108 (peptide)
# peptide: Ac-LEGREKVRAQI[Aib][Aib]EG[Nle]STWS[Aib]RKKK[PEG2″][PEG2″][PEG2″][PEG2″][γGlu][γGlu][γGlu]K([γGlu-Palmitoyl])-NH2
# B8: peptide of SEQ ID NO: 110 (peptide)
# peptide: Ac-LEGREKVRAQI[Aib][Aib]EG[Nle]STWS[Aib]RKK[PEG2″][PEG2″][PEG2″][γGlu][γGlu][γGlu]K([γGlu-Palmitoyl])-NH2
# B9: peptide of SEQ ID NO: 103 (peptide)
# peptide: Ac-LEGREKVRAK(Ac)I[Aib][Aib]EG[Nle]ST[1Nal]S[Aib]RKKK([PEG2″-PEG2″-γGlu-γGlu-γGlu-PEG2″-γGlu-Stearoyl])-NH2
# B10: peptide of SEQ ID NO: 106 (peptide)
# peptide: Ac-LEGREKVRAQI[Aib][Aib]EG[Nle]STWS[Aib]RKKK([γGlu-γGlu-PEG2″-PEG2″-PEG2″-γGlu-Stearoyl])-NH2
# B11: peptide of SEQ ID NO: 97 (peptide)
# peptide: Ac-LEGREKVRAQI[Aib][Aib]EG[Nle]STWS[Aib]RKKK([PEG12-γGlu-γGlu-γGlu-Stearoyl])-NH2
# SMILES: CCCCCCCCCCCCCCCCCC(=O)N[C@@H](CCC(=O)N[C@@H](CCC(=O)N[C@@H](CCC(=O)NCCOCCOCCOCCOCCOCCOCCOCCOCCOCCOCCOCCOCCC(=O)NCCCC[C@H](NC(=O)[C@H](CCCCN)NC(=O)[C@H](CCCCN)NC(=O)[C@H](CCCNC(=N)N)NC(=O)C(C)(C)NC(=O)[C@H](CO)NC(=O)[C@H](Cc1c[nH]c2ccccc12)NC(=O)[C@@H](NC(=O)[C@H](CO)NC(=O)[C@H](CCCC)NC(=O)CNC(=O)[C@H](CCC(=O)O)NC(=O)C(C)(C)NC(=O)C(C)(C)NC(=O)[C@@H](NC(=O)[C@H](CCC(N)=O)NC(=O)[C@H](C)NC(=O)[C@H](CCCNC(=N)N)NC(=O)[C@@H](NC(=O)[C@H](CCCCN)NC(=O)[C@H](CCC(=O)O)NC(=O)[C@H](CCCNC(=N)N)NC(=O)CNC(=O)[C@H](CCC(=O)O)NC(=O)[C@H](CC(C)C)NC(C)=O)C(C)C)[C@@H](C)CC)[C@@H](C)O)C(N)=O)C(=O)O)C(=O)O)C(=O)O
# B12: peptide of SEQ ID NO: 114 (peptide)
# peptide: Ac-LEGREKVRAK(Ac)I[Aib][Aib]EG[Nle]STWS[Aib]RKK(Ac)[PEG2″][PEG2″][PEG2″]K([γGlu-γGlu-γGlu-Palmitoyl])-NH2
# B13: peptide of SEQ ID NO: 117 (peptide)
# peptide: Ac-LEGREKVRAK(Ac)I[Aib][Aib]EG[Nle]STWS[Aib]RKK(Ac)[PEG2′][PEG2′][PEG2′][γGlu][γGlu]K([γGlu-Palmitoyl])-NH2
# B14: peptide of SEQ ID NO: 11 (peptide)
# peptide: Ac-LEGREKVRAQI[Aib][Aib]EG[Nle]STWS[Aib]RK[PEG2″][PEG2″]K([γGlu-γGlu-γGlu-Palmitoyl])-NH2
# B15: peptide of SEQ ID NO: 12 (peptide)
# peptide: Ac-LEGREKVRAQI[Aib][Aib]EG[Nle]STWS[Aib]RK[PEG2′]K([PEG2′-γGlu-γGlu-γGlu-Palmitoyl])-NH2
# B16: peptide of SEQ ID NO: 111 (peptide)
# peptide: LEGREKVRAXIXXEGQSTWSXRKKX
# modifications: Ac-L-E-G-R-E-K-V-R-A-K(Ac)-I-Aib-Aib-E-G-Q-S-T-W-S-Aib-R-K-K-K(PEG2-PEG2-PEG2-gE-gE-gE-gE-gE-Stea)-NH2
# B17: peptide of SEQ ID NO: 109 (peptide)
# peptide: Ac-LEGREKVRAQI[Aib][Aib]EG[Nle]STWS[Aib]RKKK[PEG2″][PEG2″][PEG2″][γGlu][γGlu]K([γGlu-Palmitoyl])-NH2
# B18: peptide of SEQ ID NO: 101 (peptide)
# peptide: Ac-LEGREKVRAK(Ac)I[Aib][Aib]EG[Nle]STWS[Aib]RKK(Ac)K([PEG2″-PEG2″-γGlu-γGlu-PEG2″-γGlu-Stearoyl])-NH2
# B19: peptide of SEQ ID NO: 115 (peptide)
# peptide: Ac-LEGREKVRAK(Ac)I[Aib][Aib]EGQSTWS[Aib]RKKK([PEG2′-PEG2′-PEG2′-γGlu-γGlu-γGlu-γGlu-Stearoyl])-NH2
# B20: peptide of SEQ ID NO: 100 (peptide)
# peptide: Ac-LEGREKVRAQI[Aib][Aib]EG[Nle]STWS[Aib]RKK([PEG2″-PEG2″-γGlu-γGlu-PEG2″-γGlu-Stearoyl])-NH2
# B21: peptide of SEQ ID NO: 104 (peptide)
# peptide: Ac-LEGREKVRAQI[Aib][Aib]EG[Nle]STWS[Aib]RKK([γGlu-γGlu-PEG2″-PEG2″-γGlu-Stearoyl])-NH2
# B22: peptide of SEQ ID NO: 118 (peptide)
# peptide: Ac-LEGREKVRAQI[Aib][Aib]EG[Nle]STWS[Aib]RKK(Ac)[PEG2′][PEG2′][γGlu][γGlu]K([γGlu-Palmitoyl])-NH2
# B23: peptide of SEQ ID NO: 116 (peptide)
# peptide: Ac-LEGREKVRAK(Ac)I[Aib][Aib]EG[Nle]STWS[Aib]RKK(Ac)[PEG2′][PEG2′][PEG2′][PEG2′][γGlu][γGlu]K([γGlu-Palmitoyl])-NH2
# B24: peptide of SEQ ID NO: 107 (peptide)
# peptide: Ac-LEGREKVRAQI[Aib][Aib]EG[Nle]STWS[Aib]RKKK[PEG2″][PEG2″][PEG2″][γGlu][γGlu][γGlu]K([γGlu-Palmitoyl])-NH2
# B25: peptide of SEQ ID NO: 98 (peptide)
# peptide: Ac-LEGREKVRAQI[Aib][Aib]EG[Nle]STWS[Aib]RKKK([PEG2′-PEG2′-γGlu-γGlu-γGlu-PEG2′-Stearoyl])-NH2
# B26: peptide of SEQ ID NO: 102 (peptide)
# peptide: Ac-LEGREKVRAK(Ac)I[Aib][Aib]EG[Nle]STWS[Aib]RKKK([PEG2″-PEG2″-γGlu-γGlu-γGlu-PEG2″-γGlu-Stearoyl])-NH2
# B27: peptide of SEQ ID NO: 99 (peptide)
# peptide: Ac-LEGREKVRAQI[Aib][Aib]EG[Nle]STWS[Aib]RKKK([PEG2′-PEG2′-γGlu-γGlu-PEG2′-γGlu-Stearoyl])-NH2
# Target: T1, RXFP1 receptor
# Experiment: cell-based or functional assay
Binder,"EC50 (nM), OVCAR 5 cells (cAMP)","EMax, OVCAR 5 cells (cAMP)"
B1,1.21 nM,83%
B2,110 nM,92%
B3,0.76 nM,91%
B4,0.03 nM,88%
B5,0.32 nM,88%
B6,0.53 nM,89%
B7,0.15 nM,94%
B8,0.17 nM,80%
B9,0.09 nM,79%
B10,0.34 nM,93%
B11,4.92 nM,98%
B12,1.34 nM,90%
B13,1.16 nM,86%
B14,14.7 nM,89%
B15,26.7 nM,76%
B16,0.21 nM,92%
B17,0.15 nM,98%
B18,0.16 nM,86%
B19,0.17 nM,93%
B20,0.16 nM,90%
B21,0.16 nM,89%
B22,1.79 nM,86%
B23,1 nM,89%
B24,0.63 nM,85%
B25,0.74 nM,99%
B26,0.08 nM,80%
B27,0.01 nM,87%
